Data from the nanobody polyreactivity screen of Harvey et al. (2022).

Test: yeast display, Sf9 membrane polyspecificity reagent, FACS + sequencing; frameworks hold sequencing errors
Summary of the method: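 Sorting gates, low and high (top ~1%), were placed on anti-HA fluorescence to track expression and on streptavidin fluorescence to track reagent binding. A clone's polyreactivity label is taken from the gate it came out of. The reagent was 10% biotinylated, detergent-solubilized Sf9 membrane, applied for 1 hour at 4 °C to galactose-induced yeast display cells.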

Row | Sequence | polyreactivity (PSR sort gate)
1 | QVQLVESGGGLVQAGGSLRLSCAASGRTFRSNAMGWYRQAPGKERELVAAITRSGGNTYYADSVKGRFTISRDTAKNTVYLQMNSLKPEDTAVYYCADRYSNPWARVSGYDYWGQGTQVTVSS | high polyreactivity
2 | QVQLVESGGGLVQAGGSLRLSCAASGRTFRSYAMGWYRQAPGKERELVATITRGSSTNYADSGKGRFTISRDNAKNTVYLQMNSLKPEDTAVYYCNADGKPPYISWLYDYWGQGTQVTVSS | low polyreactivity
3 | QVQLVESGGGLVQAGGSLRLSCAASGRTFRTNAMGWYRQAAGKERELVAAIRASTGSTYYADSVKGRFTMSRDNAKNTVYLQMNSLKPEDTAVYYCAARLRRGLTATWYYYWGQGTQVTVSS | high polyreactivity
4 | QVQLVESGGGLVQAGGSLRLSCAASGRTFRTNAMGWYRQAPGKERELVAAITSDGTYYADSVKGRFTISRDNAKNTVYLQMNSLKPEDTAVYYCNVDDRETRDDYWGQGTQVTVSS | low polyreactivity
5 | QVQLVESGGGLVQAGGSLRLSCAASGRTFRTNAMGWYRQAPGKESELVADITYSGDSTYDADSVKGRFTISRDNAKNNVYLQMNSLKPEDTAVYYCNARLLSGPGYDYWGQGTQVTVSS | low polyreactivity
6 | QVQLVESGGGLVQAGGSLRLSCAASGRTFRTNTMGWYRQAPGKERELVAAIRYIGGSTYYADSVKGRFTISRDNAKNTVYLQMNSLKPEDTAVYYCAAYRYGSRYGYEYWGQGTQVTVSS | high polyreactivity
7 | QVQLVESGGGLVQAGGSLRLSCAASGRTFRTYAMGWYRQAPGKERELVAITTSGGSTYYADSVKGRFTISRDNAKNTVYLQMNSLKPEDTAVYYGAAQWRSYYDQYGYDYWGQGTQVTVSS | low polyreactivity
8 | QVQLVESGGGLVQAGGSLRLSCAASGRTFRTYAMGWYRQAPGKERELVASISVGGGSTYYADSVKGRFTISRDNAKNTVYLQMNSLKPEDTAVYYCAVRSYSPRSRGMGYWGQGTQVTVSS | high polyreactivity
9 | QVQLVESGGGLVQAGGSLRLSCAASGRTFRTYTMGWYRQAPGKEREFVAAIDRTGGSTYYADSVKGRFTISRDNAKNTVYLQMNSLKPEDTAVYYCAARFGSGFNYWGQGTQVTVSS | high polyreactivity
10 | QVQLVESGGGLVQAGGSLRLSCAASGRTFRTYVMGWYRQAPGKERELVAAITWSGGRTYYADSVKGRFTISRDNAKNTVYLQMNSLKPEDTAVYYCATQPTYYLRSYGLDYWGQGTQVTVSS | high polyreactivity
11 | QVQLVESGGGLVQAGGSLRLSCAASGRTFRVYAMGWYRQAPGKERELVAAISGSGGSTYYADSLKGRFTISRDNAKNTVYLQMNSLKPDDTAVYYCAARYFGPGWRDRDYNYWAQGTQVTVSS | high polyreactivity
12 | QVQLVESGGGLVQAGGSLRLSCAASGRTFRVYAMGWYRQAPGKERELVATITSSGGSTYYADSVKGRLTISRDNAMNTVDLQMNSLKPEDTAGYYCNVSVYYKYVSSYYYWGQGTQVTVSS | low polyreactivity
13 | QVQLVESGGGLVQAGGSLRLSCAASGRTFRVYAMGWYRQAPGKERELVATLTGRGGSTDYADSVKGRFTISRDNAKNTVYLQMNILKPEDTAVYYCAAVGVSRRADPAWAGDYWGQGTQVTVSS | high polyreactivity
14 | QVQLVESGGGLVQAGGSLRLSCAASGRTFRWNAMGWYRPAPGKERELVAAISSGGSTYYADSVKGRFTISRDNAKNTVYLQMNSLKPEDTAVYYCNKYYVRAYDTQEYDYWGQGTQVTVSS | high polyreactivity
15 | QVQLVESGGGLVQAGGSLRLSCAASGRTFRWNAMGWYRQAPGKERELVATIRSGDSTNYADSVKGRFTISRDNAKNTVYLQMNSLKPEDTAVYYCAAEGVSKVYWGYFGSYDYWGQGTQVTVSS | low polyreactivity
16 | QVQLVESGGGLVQAGGSLRLSCAASGRTFRWNGMGWYRQAPGKERELVAVINRGGSTTYADSVKGRFTISRDNAKNTVYLQMNSLKPEDTAVYYCAKDHYYAGTWRYGYWGQGTQVTVSS | high polyreactivity
17 | QVQLVESGGGLVQAGGSLRLSCAASGRTFRWYAMGWYRQAPGKERELVAAINPGGSTNYADSVKGRFTISRDNAKNSVYLQMNSLKPEDTAVYYCNAAGYDALTHNYYWGQGTQVTVSS | low polyreactivity
18 | QVQLVESGGGLVQAGGSLRLSCAASGRTFRWYAMGWYRQAPGKERELVAAITSDGSTYYADSVKGRFTISRDNAKNTVYLQMNSLKPEDTAVYYCNAAGRYAFPFGYNYWGQGTQVTVSS | high polyreactivity
19 | QVQLVESGGGLVQAGGSLRLSCAASGRTFRWYAMGWYRQAPGKERELVAAITSSSSTNYADSVKGRFTISRDNAKNTVYLQMNSLKPEDTAVYYCAKGWNWYDLGESGYWGQGTQVTVSS | low polyreactivity
20 | QVQLVESGGGLVQAGGSLRLSCAASGRTFRWYAMGWYRQAPGKERELVADISSVGSTDYADSVKGRFTISRDNAKNTVYLQMNSLKPEDTAVYDCAADFSPRRYHNRSFGYWGHGTQVTVSS | low polyreactivity
21 | QVQLVESGGGLVQAGGSLRLSCAASGRTFRWYAMGWYRQAPGKETELVAAINPGGSTNYADSVKGRFTISRDNAKNTVYLQMNSLKPEDTAVYYCNAAGYDALTHNYYWGQCTQVTVSS | low polyreactivity
22 | QVQLVESGGGLVQAGGSLRLSCAASGRTFRWYTMGWYRQAPGKERELVAAITSRGGSTYADSVKGRFTISRDNAKNTVYLQMNSMKPEDTAVYYCNAARTYQYDYWGQGTQVTVSS | high polyreactivity

Row | Sequence | polyreactivity (PSR sort gate)
23 | QVQLVESGGGLVQAGGSLRLSCAASGRTFRYNAMGWYRQAPGKERDLVAAISYSGGRTNYADSVKGRFTISRDNAKNTVYLQMNSLKPEDTAVYDCATGYAVYLSRRDYWGQGTQVTVSS | high polyreactivity
24 | QVQLVESGGGLVQAGGSLRLSCAASGRTFRYNAMGWYRQAPGKERELVAAISTRGGSTYYADSVKGRFTISRDNAKNTVYLQMNSLKPEDTAVYYCAVTPRIPGHFEDYYWGQGTQVTVSS | low polyreactivity
25 | QVQLVESGGGLVQAGGSLRLSCAASGRTFRYNAMGWYRQAPGKERELVAGITYNGGSTSYADSVKGRFTISRDNAKNTVYLQMNSLKPEDTAVYYCNVVYNYYGRFGSWGQGTQVTVSS | high polyreactivity
26 | QVQLVESGGGLVQAGGSLRLSCAASGRTFRYNDMGWYRQAPGKERELVADITFSGGNTYYADSVKGRFTISRVNAKNTVYLQMNSLKPEDTAVYYCAKRRYYTGGMDYWVQGTQVTVSS | low polyreactivity
27 | QVQLVESGGGLVQAGGSLRLSCAASGRTFRYNTMGWYRPAPGKERELVAAISSGGGRTYYADSVKGRFTISRDNAKNTVYLQMNSLIPEDTAVYYCAADRYFRSRRSYEYWGQGTQVTVSS | low polyreactivity
28 | QVQLVESGGGLVQAGGSLRLSCAASGRTFRYNTMGWYRQAPGKERELVAAITRSGGTTYYADSVKGRFTISRDNAKNTVYLQMNSLKPEDTSVYYCAAEGQAVRKSARDVFFEEFDYWGHGTQVTVSS | low polyreactivity
29 | QVQLVESGGGLVQAGGSLRLSCAASGRTFRYYAMGWSRQAPGKERELVASITSGGRTYYADSVKGRFTISRDNAKNTVYLQMNSLKPEDTAVYYCAADTPVTASSPPSDYWGQGTQVTVSS | high polyreactivity
30 | QVQLVESGGGLVQAGGSLRLSCAASGRTFRYYAMGWYRPAPGKERELVATITGSGGSTYYADSVKGRFTISRDNAKNTVYLQMNSLKPEDTAVYYCNARKVRYPYRWYDYWGQGTQVTVSS | high polyreactivity
31 | QVQLVESGGGLVQAGGSLRLSCAASGRTFRYYAMGWYRQAPGKERELVAAISSRGNTYYADSVKGRFTISRDNAKNTVYLQMNSLKPEDTAVYYCAAYVYRVQYDFDYWGQGTQVTVSS | high polyreactivity
32 | QVQLVESGGGLVQAGGSLRLSCAASGRTFRYYAMGWYRQAPGKERELVAAITGSGGSTYYADSVKGRFTISRDNAKNTVYLQMHSLKPEDTAVYYCNTYLSRWSGERDYWGQGTQVTVSS | high polyreactivity
33 | QVQLVESGGGLVQAGGSLRLSCAASGRTFRYYAMGWYRQAPGKERELVAGISSSGRTYYADSVKGRFTISRDNAKNTVYLQMNSLKPEDTAVYYCNAVYWPVRPVDRHDYWGQGTQVTVSS | high polyreactivity
34 | QVQLVESGGGLVQAGGSLRLSCAASGRTFRYYAMGWYRQAPGKERELVASISSTGGNTYYADSVKGRFTISRDNAKNTVYLQMNSLKPEDTAVYYCAAGAWTRGQYYYWGQGTQVTVSS | high polyreactivity
35 | QVQLVESGGGLVQAGGSLRLSCAASGRTFRYYAMGWYRQAPGKERELVASITSGGRTYYADSVKGRFTISRDNAKNTVYLQMNSLKPEDTAVYYCAADRFGIGGKRGNDYWGQGTQVTVSS | high polyreactivity
36 | QVQLVESGGGLVQAGGSLRLSCAASGRTFRYYAMGWYRQAPGKEREWDAAISRGDSTHYADSVKGRFTISRDNAKNSVYLQMNSLKPEDTEVYYCAAYRGRSVDRQPYYWGQGTQVTVSS | high polyreactivity
37 | QVQLVESGGGLVQAGGSLRLSCAASGRTFRYYAMGWYRQAPGKESELVAAIRTRGASTYYADSVKGRFTISRDNAKNTVYLQMNSLKPEDTAVYYCAKRAHFSSARHVYYIYDYWGQGTQVTVSS | low polyreactivity
38 | QVQLVESGGGLVQAGGSLRLSCAASGRTFRYYAMGWYRQAPGKVRELVAAISWNGANTYYADSVKGRFTISRDNAKNTVYLQMNSLKPEDTAVYYCAATYYRWKGYDYWGQGTQVTVSS | high polyreactivity
39 | QVQLVESGGGLVQAGGSLRLSCAASGRTFRYYSMGWYRQAPGKERELVATITGSGGSTYYADSVKGRFTISRDNAKNTVYLQMNSLKPEDTAVYYCNARKVRYPYRWYDYWGQGTQVTVSS | high polyreactivity
40 | QVQLVESGGGLVQAGGSLRLSCAASGRTFRYYVMGWYRQAPGKERELVAAINRRGDNTYYADSVKGRLTISRDNAKNTVYLQMNSLKPEDTAVYYCAARREPYQYNQYYSWGQGTQVTVSS | high polyreactivity
41 | QVQLVESGGGLVQAGGSLRLSCAASGRTFRYYVMGWYRQAPGKERELVAAISRTGGNTYYADSVKGRFTISRDNAKNTVYLQMNSLKPEDTAVYYCNTVRRPSSWRYDYWGQGTQVTVSS | high polyreactivity
42 | QVQLVESGGGLVQAGGSLRLSCAASGRTFSANAMGWYRQAPGKERELVATISSGGRTNYADSVKGRFTISRDNAMNTVYLQMNSLKPEDTAVYYCAADFDYAYWDTTYDYWGQGTQVTVSS | low polyreactivity
43 | QVQLVESGGGLVQAGGSLRLSCAASGRTFSAYAMGWYRQAPGKERELVARITSVDSTNYADSVKGRFTISRDNAKNTVYLQMNSLKPEDTAVYYCNATFGYPFVDYDDYWGQGTQVTGSS | low polyreactivity
